From patent publication US20250090676A1 (SUTRO BIOPHARMA, published 2025)

B1: SRP1848-E03 (antibody, V domains shown)
VH: EVQLVESGGGLAQPGGSLRLSCAASGFNIGNYYIHWVRQAPGKGLEWVGGITPRDGFTDYADSVKGRFTISADTSKNTAYLQVNSLRAEDTAVYYCARGSWSWPAGHSYYLDYWGQGTLVTVSS
VL: not shown
notes: IgG with common trastuzumab LC, cell-free expressed, HIS- and FLAG-tagged; also called Antibody 33
B2: SRP1848-E06 (antibody, V domains shown)
VH: EVQLVESGGGLVQPSGSLRLSCAASGFNINRYYIHWVRQAPGKGLEWVGGITPNDGYTDYADSVEGRFTTSADTSKNTAYLQMNSLRAEDTAVYYCARGTWSWPSGHSYYLDYWGQGTLVTVSS
VL: not shown
notes: IgG with common trastuzumab LC, cell-free expressed, HIS- and FLAG-tagged; also called Antibody 35
B3: SRP1848-D03 (antibody, V domains shown)
VH: EVQLVESGGGVVQPGGSLRLSCAASGFNIRYFSIHWVRQAPGKGLEWVGDIFPNDGSTDYADSVKGRFTISADTSKNTAYLQMNSLRAEETAVYYCARGHWSWPSGYWYYLDYWGQGTLVTVSS
VL: not shown
notes: IgG with common trastuzumab LC, cell-free expressed, HIS- and FLAG-tagged; also called Antibody 25
B4: SRP1848-F05 (antibody, V domains shown)
VH: EVQLVESGGGLVQPGGSLRLSCAASGFNISKSSIHWVRQAPGKGLEWVGEIYPNDGSTDYADSVKGRFTISADTSKNTAYLQMNSLRAEDTAVYYCARGSWAWRSGYSYFLDYWGQGTLVTVSS
VL: not shown
notes: IgG with common trastuzumab LC, cell-free expressed, HIS- and FLAG-tagged; also called Antibody 40
B5: SRP1848-F08 (antibody, V domains shown)
VH: EVQLVESGGGLVQPGGSLRLSCAAGGFNISNHSIHWVRQAPGKGVEWVGEIYPVDGITDYADSVKGRFTISADTSKNTAYLRMNSLRAEDTAVYYCARGSWYWQSGYSYYLDYWGQGTLVTVSS
VL: not shown
notes: IgG with common trastuzumab LC, cell-free expressed, HIS- and FLAG-tagged; also called Antibody 43
B6: SRP1848-F11 (antibody, V domains shown)
VH: EVQLVESGGGLVQPGGSLRLSCAASGFNISNNYIHWVRQAPGKGLEWVGGITPIDGNTDYADSVKGRFTISADTSMNTAYLQMNSLRAEDTAVYYCARGSWYWRAGYGYYLDYWGQGALVTVSS
VL: not shown
notes: IgG with common trastuzumab LC, cell-free expressed, HIS- and FLAG-tagged; also called Antibody 46
B7: SRP1848-F09 (antibody, V domains shown)
VH: EVQLVESGGGLVQPGGSLRLSCAASGFNISNHYIHWVRQAPGKGLEWVGGISPLDGYTDYADSVKGRFTISADTSKNTAYLQMNSLRAEDTAVYYCARGAWSWRSGYGYYIDYWGQGTLVTVSS
VL: not shown
notes: IgG with common trastuzumab LC, cell-free expressed, HIS- and FLAG-tagged; also called Antibody 44
B8: SRP1848-G03 (antibody, V domains shown)
VH: EVQLVESGGGLVQPGGSLRLSCAASGFNISTYYIHWVRQAPGKGLEWVGGITPSDGFTDYADSVKGRSTISADTSKNTAYLQMNSLRAEDTAVYYCARGSWSWPSGHGYFLDYWGQGTLVTVSS
VL: not shown
notes: IgG with common trastuzumab LC, cell-free expressed, HIS- and FLAG-tagged; also called Antibody 48
B9: SRP1848-G01 (antibody, V domains shown)
VH: EVQLVESGGGLVQPGGSLRLSCAASGFNISRHSIHWVRQAPGKGLEWVGWIAPNDGSTDYADSVKGRFTISADTSKNTAYLQMNSLRAEDTAVYYCARGSWAWRSGYSYFLDYWGQGTLVTVSS
VL: not shown
notes: IgG with common trastuzumab LC, cell-free expressed, HIS- and FLAG-tagged; also called Antibody 47
B10: SRP1848-F06 (antibody, V domains shown)
VH: EVQLVESGGGLVQPGGSLRLSCAASGFNISLSYIHWVRQAPGKGLEWVGGISPIDGNTDYADSVKGRFTISADTSKNTAYLQMNSLRAEDTAVYYCARGFWAWRSGYGYYLDYWGQGTLVTVSS
VL: not shown
notes: IgG with common trastuzumab LC, cell-free expressed, HIS- and FLAG-tagged; also called Antibody 41
B11: SRP1848-F10 (antibody, V domains shown)
VH: EVQLVESGGGLVQPGGSLRLSCAASGFNISNNSIHWVRQAPGKGLEWVGSIFPNDGYTDYADSVKGRFTISADTSKNTAYLQMNSLRAEDTAVYYCARGSWFWRSGYGYYLDYWGQGTLVTVSS
VL: not shown
notes: IgG with common trastuzumab LC, cell-free expressed, HIS- and FLAG-tagged; also called Antibody 45
B12: SRP1848-H01 (antibody, V domains shown)
VH: EVQLVESGGGLVQPGGSLRLSCAASGFNIRTQSIHWVRQAPGKGLEWIGDIFPIDGITDYADSVKGRFTISADTSKNTAYLQMNSLRAEDTAVYYCARGSWSWPSGMDYYLDYWGQGTLVTVSS
VL: not shown
notes: IgG with common trastuzumab LC, cell-free expressed, HIS- and FLAG-tagged; also called Antibody 55
B13: SRP1848-F07 (antibody, V domains shown)
VH: EVQLVESGGGLVQPGGSLRLSCAASGFNISNHSIHWVRQAPGKGLEWVGEIYPNDGITDYADSVKGRFTISADTSKNTAYLQMNSLSAEDTAVYYCARGSWDWRSGYSYYLDYWGQGTLVTVSS
VL: not shown
notes: IgG with common trastuzumab LC, cell-free expressed, HIS- and FLAG-tagged; also called Antibody 42
B14: SRP1848-G04 (antibody, V domains shown)
VH: EVQLVESGGGLVQPGGSLRLSCAASGFNIHSTDIHWVRQAPGKGLEWVAYITPAGGATFYADSVKGRFTISADTSKNTAYLQMNSLRAEDTAVYYCARYPYWFAGYMDYWGQGTLVTVSS
VL: not shown
notes: IgG with common trastuzumab LC, cell-free expressed, HIS- and FLAG-tagged; also called Antibody 49
B15: SRP1848-G06 (antibody, V domains shown)
VH: EVQLVESGGGLVQPGGSLRLSCAASGFNIRSTDIHWVRQAPGKGLEWVAYITPAGGATYYADNVKGRFTISADTSKNTAYLQMNSLRAEDTAVYYCARQPYWFAGYMDYWGQGTLVTVSS
VL: not shown
notes: IgG with common trastuzumab LC, cell-free expressed, HIS- and FLAG-tagged; also called Antibody 50
B16: SRP1848-G10 (antibody, V domains shown)
VH: EVQLVESGGGLVQPGSSLRLSCAASGFNIRSTDIHWVRQAPGKGLEWVAYITPAGGATYYADSVKGRFTISADTSKNTAYLQMNSLRAEDTAVYYCARYPYWFAGYIDYWGQGTLVTVSS
VL: not shown
notes: IgG with common trastuzumab LC, cell-free expressed, HIS- and FLAG-tagged; also called Antibody 53
B17: SRP1848-G07 (antibody, V domains shown)
VH: EVQLVESGGGLVQPGGSLRLSCAASGFNIHSTDIHWVRQAPGKGLEWVAYITPAGGATWYADSVKGRFTISADTSKNTAYLQMNSLRAEDTAVYYCARYPFWFAGYMDYWGQGTLVTVSS
VL: not shown
notes: IgG with common trastuzumab LC, cell-free expressed, HIS- and FLAG-tagged; also called Antibody 51
B18: SRP1848-G09 (antibody, V domains shown)
VH: EVQLVESGGGLVQPGGSLRLSCAASGFNIRGTDIHWVRQAPGKGLEWVAYITPAGGATFYADSVKGRFTISADTSKNTAYLQMNSLRAEDTAVYYCARHEYWFSGYMDYWGQGTLVTVSS
VL: not shown
notes: IgG with common trastuzumab LC, cell-free expressed, HIS- and FLAG-tagged; also called Antibody 52
B19: SRP1848-G11 (antibody, V domains shown)
VH: EVQLVESGGGLVQPGGSLRLSCAASGFNISSTDIHWVRQAPGKGLEWVAYITPAGGATWYADSVKGRFTISADTSKNTAYLQMNSLRAEDTAVYYCARYPYWFSGYMDYWGQGTLVTVSS
VL: not shown
notes: IgG with common trastuzumab LC, cell-free expressed, HIS- and FLAG-tagged; also called Antibody 54

Target: T1, human FOLR1-HIS (human, UniProt P15328 25-233)
T1 construct: Analyte of the Biacore assay; also called FolRα-ECD; extracellular domain of FOLR1; not shown: HIS tag
T1 sequence (P15328 25-233 limits assumed): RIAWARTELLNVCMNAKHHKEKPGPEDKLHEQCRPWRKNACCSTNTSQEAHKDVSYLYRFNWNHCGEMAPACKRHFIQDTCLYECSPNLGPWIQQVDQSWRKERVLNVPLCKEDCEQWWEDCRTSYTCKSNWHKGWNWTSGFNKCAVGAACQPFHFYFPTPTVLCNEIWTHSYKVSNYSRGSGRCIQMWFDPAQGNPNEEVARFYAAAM
Assay: SPR (Biacore), antibody captured on anti-Fc, human FOLR1-HIS analyte, 25 C

Question: B1 was tested. Which Kd did it give?
Answer: 2.67 nM

Question: And the koff?
Answer: 0.00183 s⁻¹

Question: What about the kon of the same binder?
Answer: 688000 M⁻¹ s⁻¹

Question: B2 was tested. Which Kd did it give?
Answer: 1.63 nM

Question: With B3 as the binder, how does the Kd read?
Answer: 5.19 nM

Question: With B4 as the binder, how does the Kd read?
Answer: 2.4 nM

Question: What about the koff of the same binder?
Answer: 0.00157 s⁻¹

Question: And the kon?
Answer: 656000 M⁻¹ s⁻¹

Question: Which results are given for B5?
Answer: Kd: 4.58 nM; koff: 0.00272 s⁻¹; kon: 594000 M⁻¹ s⁻¹

Question: B6 was tested. Which Kd did it give?
Answer: 4.71 nM

Question: And the koff?
Answer: 0.0039 s⁻¹

Question: What about the kon of the same binder?
Answer: 828000 M⁻¹ s⁻¹

Question: Which results are given for B7?
Answer: Kd: 4.85 nM; koff: 0.00679 s⁻¹; kon: 1.4e+06 M⁻¹ s⁻¹

Question: What does the source list for B8?
Answer: Kd: 1.99 nM; koff: 0.00197 s⁻¹; kon: 990000 M⁻¹ s⁻¹

Question: With B9 as the binder, how does the Kd read?
Answer: 5.09 nM

Question: And the koff?
Answer: 0.00226 s⁻¹

Question: What about the kon of the same binder?
Answer: 444000 M⁻¹ s⁻¹

Question: How did the Kd turn out when B10 was run?
Answer: 17 nM

Question: What about the koff of the same binder?
Answer: 0.00775 s⁻¹

Question: And the kon?
Answer: 456000 M⁻¹ s⁻¹

Question: B11 was tested. Which Kd did it give?
Answer: 2.83 nM

Question: What about the koff of the same binder?
Answer: 0.00247 s⁻¹

Question: And the kon?
Answer: 872000 M⁻¹ s⁻¹

Question: With B12 as the binder, how does the Kd read?
Answer: 2.11 nM

Question: For B13, which Kd is on record?
Answer: 1.56 nM

Question: And the koff?
Answer: 0.00249 s⁻¹

Question: And the kon?
Answer: 1.6e+06 M⁻¹ s⁻¹

Question: B14 was tested. Which Kd did it give?
Answer: 6.4 nM

Question: And the koff?
Answer: 0.00379 s⁻¹

Question: And the kon?
Answer: 591000 M⁻¹ s⁻¹

Question: With B15 as the binder, how does the Kd read?
Answer: 6.7 nM

Question: And the koff?
Answer: 0.00381 s⁻¹

Question: And the kon?
Answer: 569000 M⁻¹ s⁻¹

Question: For B16, which Kd is on record?
Answer: 4.55 nM

Question: What about the koff of the same binder?
Answer: 0.00345 s⁻¹

Question: What about the kon of the same binder?
Answer: 758000 M⁻¹ s⁻¹

Question: How did the Kd turn out when B17 was run?
Answer: 7.45 nM

Question: And the koff?
Answer: 0.00451 s⁻¹

Question: And the kon?
Answer: 605000 M⁻¹ s⁻¹

Question: What does the source list for B18?
Answer: Kd: 7.56 nM; koff: 0.00646 s⁻¹; kon: 856000 M⁻¹ s⁻¹

Question: How did the Kd turn out when B19 was run?
Answer: 9.14 nM

Question: What about the koff of the same binder?
Answer: 0.00637 s⁻¹

Question: And the kon?
Answer: 696000 M⁻¹ s⁻¹
